# Assay results reported in US20020164657A1, “Assays for assessing A beta-Tau aggregation” (priority 2001, published 2002).
# Target: T1, tau phosphorylated by TPK II (Homo sapiens, UniProt P10636)
# T1 construct: Human recombinant tau 1-383 isoform; made in house; host or cells: tau and p20: E. coli; cdk5: baculovirus-infected insect cells
# Test: Gel-shift assay of TPK II tau phosphorylation
# Type: biochemical
# Settings: 3 μM tau, 50 nM TPK II, 60 μM Aβ peptide, 4 hours, FIG. 8
# Procedure: Gel-shift assays were done by incubating 3 μM tau with 50 nM TPK II and/or 167 units/ml TPK I for the indicated time at 37° C. in a total volume of 20 μl containing 40 mM Tris, pH 7.5, 10 mM MgCl2, 1 mM DTT, and 1 mM ATP. Aβ peptides were added at 10× concentrations to the assay to achieve the final concentration indicated. Following incubation the samples were electrophoresed on 12% SDS-PAGE and stained with Coomassie Blue R-250.
# T1 sequence (P10636 1-383 isoform P10636-6): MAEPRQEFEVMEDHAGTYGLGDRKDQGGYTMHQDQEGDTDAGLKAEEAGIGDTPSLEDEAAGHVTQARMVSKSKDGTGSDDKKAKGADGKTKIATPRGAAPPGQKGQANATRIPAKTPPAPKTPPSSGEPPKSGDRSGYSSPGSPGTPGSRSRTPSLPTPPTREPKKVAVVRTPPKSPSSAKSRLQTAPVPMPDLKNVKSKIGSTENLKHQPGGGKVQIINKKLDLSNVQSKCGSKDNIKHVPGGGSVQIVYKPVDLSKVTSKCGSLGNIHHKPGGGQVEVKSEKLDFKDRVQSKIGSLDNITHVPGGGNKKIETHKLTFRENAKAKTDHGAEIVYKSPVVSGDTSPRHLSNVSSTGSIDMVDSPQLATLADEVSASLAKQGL
row,Substance,effect on tau gel shift
1,"Aβ 1-40: beta-amyloid peptide, residues 1-40, obtained from Bachem; control peptide",no effect
2,"Aβ 25-35: beta-amyloid peptide fragment 25-35, obtained from Bachem; control peptide (GSNKGAIIGLM)",no effect
